Patent US20240092919A1
Changes are numbered by the printed parent chain.

B1: T017000139 (bispecific antibody)
chain: DVQLVESGGGLVQPGGSLRLSCVASGDVHKINFLGWYRQAPGKEREKVAHISIGDQTDYADSAKGRFTISRDESKNMVYLQMNSLKPEDTAVYFCRAFSRIYPYDYWGQGTLVTVSSGGGGSGGGGSGGGGSGGGGSGGGGSGGGGSGGGGSEVQLVESGGGLVQAGGPLRLSCAASGRTFSSYVMGWFRQAPGKEREFVAAIYWSNGKTQYTDSVKGRFTISGDNAKNTVYLQMNSLNPEDTAVYYCVADKDETGFRTLPIAYDYWGQGTLVTVSSGGGGSGGGGSGGGGSGGGGSGGGGSGGGGSGGGGSEVQLVESGGGLVQAGGSLRLSCAASGITSKINDMGWYRQTPGNYREWVASITATGTTNYRDSVKGRFTISRDNAKSTVYLQMNSLKPEDTTVYYCNTFPPISNFWGQGTLVTVSSA
B2: T017000670 (bispecific antibody)
chain: B1 chain with L11V, D27Y, L34Y, M77T, K86R, V92L, F94Y, F98L, Y102W
B3: T017000671 (bispecific antibody)
chain: DVQLVESGGGLVQAGGSLRLSCAASGITSKINDMGWYRQTPGNYREWVASITATGTTNYRDSVKGRFTISRDNAKSTVYLQMNSLKPEDTTVYYCNTFPPISNFWGQGTLVTVSSGGGGSGGGGSGGGGSGGGGSGGGGSGGGGSGGGGSEVQLVESGGGVVQPGGSLRLSCVASGYVHKINFYGWYRQAPGKEREKVAHISIGDQTDYADSAKGRFTISRDESKNTVYLQMNSLRPEDTALYYCRALSRIWPYDYWGQGTLVTVSSGGGGSGGGGSGGGGSGGGGSGGGGSGGGGSGGGGSEVQLVESGGGLVQAGGPLRLSCAASGRTFSSYVMGWFRQAPGKEREFVAAIYWSNGKTQYTDSVKGRFTISGDNAKNTVYLQMNSLNPEDTAVYYCVADKDETGFRTLPIAYDYWGQGTLVTVSSA
B4: T017000675 (bispecific antibody)
chain: DVQLVESGGGLVQAGGPLRLSCAASGRTFSSYVMGWFRQAPGKEREFVAAIYWSNGKTQYTDSVKGRFTISGDNAKNTVYLQMNSLNPEDTAVYYCVADKDETGFRTLPIAYDYWGQGTLVTVSSGGGGSGGGGSGGGGSGGGGSGGGGSGGGGSGGGGSEVQLVESGGGLVQAGGSLRLSCAASGITSKINDMGWYRQTPGNYREWVASITATGTTNYRDSVKGRFTISRDNAKSTVYLQMNSLKPEDTTVYYCNTFPPISNFWGQGTLVTVSSGGGGSGGGGSGGGGSGGGGSGGGGSGGGGSGGGGSEVQLVESGGGVVQPGGSLRLSCVASGYVHKINFYGWYRQAPGKEREKVAHISIGDQTDYADSAKGRFTISRDESKNTVYLQMNSLRPEDTALYYCRALSRIWPYDYWGQGTLVTVSSA
B5: T017000676 (bispecific antibody)
chain: DVQLVESGGGLVQAGGSLRLSCAASGITSKINDMGWYRQTPGNYREWVASITATGTTNYRDSVKGRFTISRDNAKSTVYLQMNSLKPEDTTVYYCNTFPPISNFWGQGTLVTVSSGGGGSGGGGSGGGGSGGGGSGGGGSGGGGSGGGGSEVQLVESGGGLVQAGGPLRLSCAASGRTFSSYVMGWFRQAPGKEREFVAAIYWSNGKTQYTDSVKGRFTISGDNAKNTVYLQMNSLNPEDTAVYYCVADKDETGFRTLPIAYDYWGQGTLVTVSSGGGGSGGGGSGGGGSGGGGSGGGGSGGGGSGGGGSEVQLVESGGGVVQPGGSLRLSCVASGYVHKINFYGWYRQAPGKEREKVAHISIGDQTDYADSAKGRFTISRDESKNTVYLQMNSLRPEDTALYYCRALSRIWPYDYWGQGTLVTVSSA
B6: T017000677 (bispecific antibody)
chain: DVQLVESGGGLVQAGGPLRLSCAASGRTFSSYVMGWFRQAPGKEREFVAAIYWSNGKTQYTDSVKGRFTISGDNAKNTVYLQMNSLNPEDTAVYYCVADKDETGFRTLPIAYDYWGQGTLVTVSSGGGGSGGGGSGGGGSGGGGSGGGGSGGGGSGGGGSEVQLVESGGGVVQPGGSLRLSCVASGYVHKINFYGWYRQAPGKEREKVAHISIGDQTDYADSAKGRFTISRDESKNTVYLQMNSLRPEDTALYYCRALSRIWPYDYWGQGTLVTVSSGGGGSGGGGSGGGGSGGGGSGGGGSGGGGSGGGGSEVQLVESGGGLVQAGGSLRLSCAASGITSKINDMGWYRQTPGNYREWVASITATGTTNYRDSVKGRFTISRDNAKSTVYLQMNSLKPEDTTVYYCNTFPPISNFWGQGTLVTVSSA

Experiments:
[1] = target: Cynomolgus T cell receptor on cynomolgus primary T cells (cynomolgus monkey); assay: cell-based or functional assay
[2] = target: Human T cell receptor on human primary T cells (human) (UniProt P01848); assay: cell-based or functional assay
Sequence of Human T cell receptor on human primary T cells (human) (P01848 whole entry, chain 1 of 2): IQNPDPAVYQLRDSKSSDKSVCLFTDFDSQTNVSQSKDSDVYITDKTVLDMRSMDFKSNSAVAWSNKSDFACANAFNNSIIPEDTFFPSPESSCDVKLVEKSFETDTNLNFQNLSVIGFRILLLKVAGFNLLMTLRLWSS
Sequence of Human T cell receptor on human primary T cells (human) (P01850 whole entry, chain 2 of 2, further chain): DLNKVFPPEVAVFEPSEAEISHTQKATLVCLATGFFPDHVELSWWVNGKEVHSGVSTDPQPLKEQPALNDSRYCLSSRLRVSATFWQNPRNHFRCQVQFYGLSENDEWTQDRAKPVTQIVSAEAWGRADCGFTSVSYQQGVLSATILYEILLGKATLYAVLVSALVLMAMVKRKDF

| Binder | % lysis, KG-1a, Cynomolgus T cell mediated killing [1] | % lysis, MOLM-13, Cynomolgus T cell mediated killing [1] | Average EC50 (M), KG-1a, Cynomolgus T cell mediated killing [1] | Average EC50 (M), MOLM-13, Cynomolgus T cell mediated killing [1] | % lysis, KG-1a, Human T cell mediated killing [2] | % lysis, MOLM-13, Human T cell mediated killing [2] | Average EC50 (M), KG-1a, Human T cell mediated killing [2] | Average EC50 (M), MOLM-13, Human T cell mediated killing [2] | IC50 (M), xCELLigence cell killing, Human T cell mediated killing, E:T 15:1 [2] |
| --- | --- | --- | --- | --- | --- | --- | --- | --- | --- |
| B1 | 26% | 40% | 1.2e-11 M | 7.2e-11 M | 51% | 25% | 7.8e-11 M | 2.5e-11 M | 4.7e-11 M |
| B2 | 30% | 34% | 8.1e-12 M | 2e-11 M | 52% | 26% | 7.4e-11 M | 2.5e-11 M | 9.4e-11 M |
| B3 |  | 46% |  | 2.1e-11 M | 21% | 14% | 1.5e-10 M | 1.5e-10 M |  |
| B4 | 26% | 31% | 2.6e-11 M | 6.9e-11 M | 46% | 23% | 9.2e-11 M | 3.4e-11 M | 5e-11 M |
| B5 | 28% | 26% | 1.4e-11 M | 2e-11 M | 41% | 25% | 8.2e-11 M | 2.3e-11 M | 1.1e-10 M |
| B6 |  | 54% |  | 5.1e-12 M | 65% | 20% | 1.5e-11 M | 1.2e-11 M |  |
